Measurements: the DeepSol protein solubility set

Test: soluble on expression in E. coli; label from the status in PepcDB or PDB records

With “MQEVHKWHNDLTGKKLVENLKKNLFDAYYFEDGSEVSKYIMNYVGTGTKIGFGGSVTVQSLNIAEQAMEKGAVILDHNDASLTQEEKMDIMRQQLTSDIFISSTNAITASGELVNIDGVGNRVSAIVFGPKKVIIVVGLNKLCKDVETAFERIKMQAAPKNMKRLGFLNPCIKTGYCVNCDAETRACRIYSVIKRRPMLTDMTVLVVGKSLGFLEHHHHHH” as the sequence, how does the “soluble on expression in E. coli” value read?
Its value is “soluble”.

Which “soluble on expression in E. coli” value does the source give for “MKFSDFFHAWLHESYYKNAVSIGKNGDFFTAVSVGNLFGTLLAKHFLNLIDEKILKPPLELVEIGANEGYLSRDFLAALLELRPEIFSQISFFIIEPHEKLRTLQKKTLEGVEFTHKNSLKECHFKNAFFFCNELFDSFTCELIDHDKMAFVENFKLIFKNMDENLITKCKALNLTKGELSLELENFFKDLNQTCERFIFAGFDYGTLNPQSFSLRIYQKHEVFSPFEVSLKDFFGKSDLTYNVNFTHLQKLIKEYDFKPLAFKKQSLAFMDFGFEDLLEYAKNKNIKTYESFLSQAKILFFNFDEKFHFFEFQKNMGHHHHHHSH” here?
Its value is “soluble”.

With “MGSDKIHHHHHHVYRKIKAQDLRPGMYVVDVGLSWLENPYLYMTEGVLADEEAVGRVLSEGYEEAVIDLRRCLEGSVPDDLAELEPLTDAEHVSRAVSATADSPVSAVAQRVPVAQEMLAAKAIYSESITFVRGFMEGAREGRPVDLKAAEPLVEDIIQSVSRNAGALIGFAKLRAYDLYTYTHSLNVSLLAVAFGKYLGLDTVALRQIGLAGLFHDLGKALIPDFILNCPGRLTPEEFSVMKRHPVLGRDVLPGGGRIPDMVLEGMLQHHEKFNGTGYPAGLKGDAISEAGRIIAVVDVYDALTSKRPYKNAMLPNKALSILYSMAGEEFYPGYVEHFIKCIGIYPVGQIVRLNTGQVGVVSATDPAVPLRPEVIVVRDPLGRPAPPRLIRLADVISVSVTETLEAAHAGIDAARVLQDGAAS” as the sequence, how does the “soluble on expression in E. coli” value read?
The value was “not soluble”.

With “MTATTNESQEIAMTATTADEIPASTEQNLRIVQRVIFPANRDLDTLPLYVDPDTNKLHTSGGGADVQAIGMARKLHPEDILNRGSVQVRRGERLSFGSYFNAFPASYWRKWTIATKTVLHIETEGEGTVIVYRSNARGASQRVDSILVEGPSTNEFELTLAPFGDGGWYWFDLIAGGDGMTLKSAHWAVPDEGRPQGRVTLGVTTFNRADYCLETIKSIDGDAGLREILAELIIVDQGNKKVADQAGFDAVAESMGDQLRIINQGNLGGSGGFARNMYEMVVSDKSDYVMLLDDDIELETEGVMRAVAFADLCRKPTIVGGHMFDMYNKSVLHAYSEVVNFYRFLWGPVEGLGNHDFSTAGLRSTPQLHRRWDADYNGWWMCLIPKTVVETIGLSLPVFIKWDDAEYSLRGRAAGFPTVTLPGAAVWHVSWADKDDSVDWQAYYHERNRLIATLLHSPFPKGGRILRESLNTDVKHLVSMQYYPEQARVMALRDVLAGPDNLHKQLPTTMPKLRAMREEFPDSQVKTDPAAFPEVFRKRPPKKPQSFKQPGALGLLPWAVKTVLKQTLAPVRGTAKAAPEAHVAHQDGKWWSLAHLDSAVVSNADGTGASWHLRNPKMARQLVVESAKLHAQLFSNWETLRAQYREALPEITSMESWRETFEASEPSK” as the sequence, how does the “soluble on expression in E. coli” value read?
Its value is “not soluble”.

With “MKIYYLGPEGSYTEKAALKFAELTNLKITPAESIYSVFREVERGNYGVVPTENSIEGSVTLTLDLLLRFPVKIFGETSLEIKHALLGYDLSKIRVVLSHPQALAQCREFIQRMRWGVRETNSTAEAVKIVAESNDPTLAAIGSREAAEIYGLKVLAEDIQDYPNNKTRFILIGREDM” as the sequence, how does the “soluble on expression in E. coli” value read?
The value was “not soluble”.

Which “soluble on expression in E. coli” value does the source give for “MSLLDIIFPPNNNDDDFYGQHFSLIDSIIVKVAQDSNLSQSLRVYQYLYSWRLFGCMVAVVNNNKTLELGDKRGAIEALYEFITRFRIENPTGDVERKVKLKILEIYMIILNLLKSFENNQDQWFLKTNSYKETTTTRRREGHHHHHH” here?
The value was “soluble”.

Which “soluble on expression in E. coli” value does the source give for “MGQGNDTSEVMLLDTGWEFSQSGTEKWMPATVPGTVHQDLISHELLPNPFYGMNEKKIQWVENEDWEYRTSFIVSEEQLNRDGIQLIFEGLDTYADVYLNGSLLLKADNMFVGYTLPVKSVLRKGENHLYIYFHSPIRQTLPQYASNGFNYPADNDHHEKHLSVFSRKAPYSYGWDWGIRMVTSGVWRPVTLRFYDIATISDYYVRQLSLTDENARLSNELIVNQIVPQKIPAEVRVNVSLNGTTVTEVKQQVTLQPGINHITLPAEVTNPVRWMPNGWGTPTLYDFSAQIACGDRIVAEQSHRIGLRTIRVVNEKDKDGESFYFEVNGIPMFAKGANYIPQDALLPNVTTERYQTLFRDMKEANMNMVRIWGGGTYENNLFYDLADENGILVWQDFMFACTPYPSDPTFLKRVEAEAVYNIRRLRNHASLAMWCGNNEILEALKYWGFEKKFTPEVYQGLMHGYDKLFRELLPSTVKEFDSDRFYVHSSPYLANWGRPESWGTGDSHNWGVWYGKKPFESLDTDLPRFMSEFGFQSFPEMKTIAAFAAPEDYQIESEVMNAHQKSSIGNSLIRTYMERDYIIPESFEDFVYVGLVLQGQGMRHGLEAHRRNRPYCMGTLYWQLNDSWPVVSWSSIDYYGNWKALHYQAKRAFAPVLINPIQQNDSLSVYLISDRLDTMEQMTLEMKVVDFDGKTLGKKIQVHSLEVPANTSKCVYRAKLDGWLTPEDCRRSFLKLILKDKSGHQVAESVHFFRKTKDLQLPPTSVSYQMKQTDGKCELTLFSSMLAKDIFIETPLQGARYSDNFFDLLPGERKKVIITSPRIKKGEELPVNIKHIRETYKEHHHHHH” here?
Its value is “soluble”.

Which “soluble on expression in E. coli” value does the source give for “MNYLKTSGIVIKEVNTGEADRIITIFSKNKGKISALAKGARRPKSHLVAGTQLLCYSEFVLFKGKDMYTVNSCDVIESFYDIRNDLERLTYAAHMMDIVNDVILENQPASRLLQLFLNSLYMLSKTDRSPLQIVRVFEIRLLSTMGYAPWVSSCIKCGSTVFDSMYFSFLKCGFLCSKCLENDKGALKISEGAAKALNYIVHSKMSNLFSFEVSESVLDELGKVSQRYMKERLEKNYTKLDFIKTLDRIKC” here?
The value was “soluble”.

For “MAMLGDQSFAAVKRDVPVDPDRQANDYVRCVADAVTREVGGSWEVVLFRQDSPNAFALPGGKIGVHTGMLRIARNQDQLATVLAHEVAHVLSRHANERLSQQVAVQQGLNAMQALADPSSSSGKTLMGLLGLGAQYGILMPYSRTQESEADLLGLDLMARAGFDPRQSIELWNNMANSGGGQPIEFLSTHPSHATRMQDLAKRMPRALDLQRQAAAQGHRPQCDGIRAGGGLEHHHHHH”, which “soluble on expression in E. coli” value is on record?
The value was “not soluble”.

For “MENMIVIMAGGRSSRMGAEKPILKVNGKPMILRVYEESTKVGETLVAISKNTPKTRELCIKEGIPLIETPGEGYVEDVRYLLKELGSFVSVSADLPFVKACDIAEVKKAFDGKTSLTGVLPLSKVPTDLRPVVYKGYVIVGLNGVGFEGEKFYELSNPLLALNVNTPEELKLANRIAKLIGLEHHHHHH”, which “soluble on expression in E. coli” value is on record?
The value was “not soluble”.

For “MNMDFNLFMNDIVRQARQEITAAGYTELKTAEEVDEALTKKGTTLVMVNSVCGCAGGIARPAAYHSVHYDKRPDQLVTVFAGQDKEATARARDYFEGYPPSSPSFAILKDGKIMKMVERHEIEGHEPMAVVAKLQEAFEEYCEEV”, which “soluble on expression in E. coli” value is on record?
The value was “not soluble”.

With “MTIYTLSHGSLKLDVSDQGGVIEGFWRDTTPLLRPGKKSGVATDASCFPLVPFANRVSGNRFVWQGREYQLQPNVEWDAHYLHGDGWLGEWQCVSHSDDSLCLVYEHRSGVYHYRVSQAFHLTADTLTVTLSVTNQGAETLPFGTGWHPYFPLSPQTRIQAQASGYWLEREQWLAGEFCEQLPQELDFNQPAPLPRQWVNNGFAGWNGQARIEQPQEGYAIIMETTPPAPCYFIFVSDPAFDKGYAFDFFCLEPMSHAPDDHHRPEGGDLIALAPGESTTSEMSLRVEWLLEHHHHHH” as the sequence, how does the “soluble on expression in E. coli” value read?
The value was “soluble”.

For “MSRFRSLLQASVNATKKALTWNVEEWVPPAEKHIFKFHSKEDLKKWHLYSDSEYGGLSSASLEIPDKGDGSDCTGVFSGNLSVDLSEGSKWNISRSGFCGMRSKKFDGFIDLDGYDAIALRIRGDGRCYISTIYTENWVNSPGQSEDNSWQAFVFAPKDSWYTAKIPLARYLPTWRGNVIDVEMEMNPGRVLGMSLSVNAEGGAVGAKSGAGDFRVEIDWIKALRLP”, which “soluble on expression in E. coli” value is on record?
The value was “soluble”.

For “MSLNAKPKDTVIANARIVLADRVIEQGWLALANGRVAEIGEGRAPAGAEDAGGDLIMPGLIELHTDHLEAHYVPRPKVFWNPVAAVVSYDGQLATSGITTVFDSLRVWREDGAEEVDGRAGVLAAAITTARDADLLRADHFLHLRCEIPMPSVVEEAKELIDRPDVKLMSLMDHTPGQRQFRDEGKLRDYYRGKNGGKTDAQLDELFAKRFEYQKAYAATNMREIVALAHQYNIPLASHDDTTEENVADAVRDRVSVAEFPTTLEAARGLHQAGIDILMGAPNVVRGGSHSGNIAAVDLAREGLLDILSSDYIPSSLLMAALQLPEHVPAISLPAAVRTVTKAPAEAVGLSDRGEIAVGKRADLIRVHIAGSVPVVRSVWREGGRVAEGHHHHHH”, which “soluble on expression in E. coli” value is on record?
Its value is “soluble”.

For “MAHHHHHHMRVFVLVAVRSGDGGVATYPPSVWHLQQCVRARSASCCHATSGGYLWTRDALFRALRRTHVDGAPASVLENAGASQRAKAAAPPCFYFFSALLDVGNNEEDVDLVALLLMELCVAWPNAIAAHMEVCRVCRGELSPAHASSPLAATLGEGETDEPSWQLEHFTREEALLVLLSDEIEATAATQDDFLTRWGVHNAWDHHRALQGRSWWVSGGIVAVLPSEAATRLVEPFLMLELSRMENGCPQLSRHPASCRDSSQTLEEALTHAILERELSHSVRAYLRNEVEGRIESRRLHRMTTVVPPAMALFLRGAPSSVLHECLLYHTVDCPLFPVEGGGCDAAQSSTDRATGLVAPAASPTAFLRPVKSGLSSTDLLERQRLVARDETSRLTELFCEYDLLLSGDGYVRVPLAPVSRYVFTQLLCQSELPSALMLALMRRHSDVTRRAGDMGHRIDPAAVSSRLPPPTEEEVVLGIKVTWAVTRWTAALQRGAAAAPPVGLPMWNEEQSLRKDKLCGWIRERMRKAKREAAELYSLEDAADTRATGREEDGVASTVSALPVASGDTADPLRRCRGAALEQLERRLFAPFPSSYRGSSTEWLGQALRDVAREQRHAASNMAQRDDVRASYAGPAPAARRAASPNVLDNSSSASDSDGTSDDGSEGAGGVGTPTRQETESLLAQLTELEVVLQNELASRTAIPLACGGDSRTTDSRLGVGDAVTGDQEMDVTSWLTAADMQQVTRNELFLHHVQLLESEMEQDQ”, which “soluble on expression in E. coli” value is on record?
Its value is “not soluble”.

With “MDKFRVQGRTRLSGEVTISGAKNAALPILFAALLAEEPVELQNVPKLKDIDTTIKLLSQLGTKIERNNGSVFVDASAVNEFCAPYDLVKTMRASIWALGPLVARFGQGQVSLPGGCAIGARPVDLHITGLEQLGAEIKLEEGYVKASVNGRLKGAHIVMDKVSVGATVTIMSAATLAEGTTVIENAAREPEIVDTANFLNTLGAKISGAGTDRITIEGVTRLGGGVYRVLPDRIETGTFLVAAAISGGKVVCRQTRPDTLDAVLAKLREAGADIEVGDDWISLDMQGKRPKAITFRTAPHPGFPTDMQAQFSLLNLVAEGTGVITETIFENRFMHVPELIRMGAHAEIESNTVICYGVEQLSGAQVMATDLRASASLVLAGCIAEGVTIVDRIYHIDRGYERIEDKLRALGAKIERVKGE” as the sequence, how does the “soluble on expression in E. coli” value read?
The value was “not soluble”.
